From the Human Domainome abundance scans (Beltran et al. 2025) come the findings set out here.

B1: E3 ubiquitin-protein ligase Midline-1, residues 172 to 214; numbered along this chain, O15344 (parent)
chain: GLMCLEHEDEKVNMYCVTDDQLICALCKLVGRHRDHQVAALSE

± gives the uncertainty stated by the source.

Variants of B1 are the subject of this data set. Kind of data set: abundance fitness (aPCA) (normalised: wild type 0, dead -1); higher = more abundant; growth selection in yeast, the domain comes from the species named. To be noted: Homo sapiens.
Take GLMCLEHEDEKVNMYCVTDDQLICALCKLVGRHRDHQRAALSE [V38R]: the abundance fitness is -0.217 ± 0.059.

As to DLMCLEHEDEKVNMYCVTDDQLICALCKLVGRHRDHQVAALSE [G1D], the abundance fitness was found to be 0.306 ± 0.091. In the case of YLMCLEHEDEKVNMYCVTDDQLICALCKLVGRHRDHQVAALSE [G1Y], the abundance fitness was -0.192 ± 0.15. To GLMCLEHEDEKVNMYCTTDDQLICALCKLVGRHRDHQVAALSE [V17T] belongs -0.027 ± 0.069; to GLMCLEHEDEKVNMYCGTDDQLICALCKLVGRHRDHQVAALSE [V17G], 0.092 ± 0.045. The figure for GLMCLEHEDEKVNMYCETDDQLICALCKLVGRHRDHQVAALSE [V17E] is 0.135 ± 0.06; for GLMCLEHEDEKVNMYCWTDDQLICALCKLVGRHRDHQVAALSE [V17W] it is -0.176 ± 0.07; for GYMCLEHEDEKVNMYCVTDDQLICALCKLVGRHRDHQVAALSE [L2Y] it is 0.109 ± 0.17.

GMMCLEHEDEKVNMYCVTDDQLICALCKLVGRHRDHQVAALSE [L2M]: the abundance fitness amounted to 0.544 ± 0.066. The figure for GLMCLEHEDEKVNMYCVTDDQLICAICKLVGRHRDHQVAALSE [L26I] is -0.525 ± 0.21; for GLMCLEHEDEKVNMYCVTDDQLICACCKLVGRHRDHQVAALSE [L26C] it is 0.138 ± 0.066.

As for GLMCLEHEDEKVNMYCVTDDQLICAHCKLVGRHRDHQVAALSE [L26H], the abundance fitness is 0.353 ± 0.17. GLMCLEHEDEKVNMYCVTDDQLICALCKLVIRHRDHQVAALSE [G31I]: the abundance fitness was -0.887 ± 0.32. To GLMCLEHEDEKVNMYCVTDDQLICALCKLVHRHRDHQVAALSE [G31H] belongs 0.057 ± 0.17. On to GLMCLEHEDEKVNMYCVTDDQLICALCKLVGRHRDHQVAAWSE [L41W], for which the abundance fitness is 0.001 ± 0.058.

With GLMCLEHEDEKVNMYCVTDDQLICALCKLVGRHRDHQVAAFSE [L41F], the abundance fitness was -0.132 ± 0.1. The figure for GLMCLEHEDEKVNMYCVTDDQLICALCKLVGRHRDHQVAAVSE [L41V] is -0.053 ± 0.054. To GLMCLEHEDEKVNMYCVTDDQLICALCKLVGRHRDHQVAAASE [L41A] belongs 0.072 ± 0.052; to GLMCLEHEDEKQNMYCVTDDQLICALCKLVGRHRDHQVAALSE [V12Q], 0.328 ± 0.2; to GLMCLEHEDEKINMYCVTDDQLICALCKLVGRHRDHQVAALSE [V12I], 0.093 ± 0.17.

With GLMCLEHEDEKGNMYCVTDDQLICALCKLVGRHRDHQVAALSE [V12G], the abundance fitness is 0.026 ± 0.048.

As for GLQCLEHEDEKVNMYCVTDDQLICALCKLVGRHRDHQVAALSE [M3Q], the abundance fitness was -0.276 ± 0.14. The figure for GLRCLEHEDEKVNMYCVTDDQLICALCKLVGRHRDHQVAALSE [M3R] is -0.101 ± 0.057. As for GLICLEHEDEKVNMYCVTDDQLICALCKLVGRHRDHQVAALSE [M3I], the abundance fitness is 0.089 ± 0.11.

Turning to GLWCLEHEDEKVNMYCVTDDQLICALCKLVGRHRDHQVAALSE [M3W], the abundance fitness was -0.333 ± 0.086. To GLMCLEHEDEKVLMYCVTDDQLICALCKLVGRHRDHQVAALSE [N13L] belongs -0.254 ± 0.077. Regarding GLMCLEHEDEKVSMYCVTDDQLICALCKLVGRHRDHQVAALSE [N13S], the abundance fitness was -0.345 ± 0.095. To GLMCLEHEDEKVNMYCVTDDQLICALCKLVGRHRDHQVATLSE [A40T] belongs 0.035 ± 0.087; to GLMYLEHEDEKVNMYCVTDDQLICALCKLVGRHRDHQVAALSE [C4Y], -0.594 ± 0.2; to GLMCLEHEDEKVNMYCVTDDELICALCKLVGRHRDHQVAALSE [Q21E], -0.047 ± 0.063. GLMCLEHEDEKVNMYCVTDDGLICALCKLVGRHRDHQVAALSE [Q21G]: the abundance fitness is -0.133 ± 0.046. Regarding GLMCLEHEDEKVNMYCVTDDTLICALCKLVGRHRDHQVAALSE [Q21T], the abundance fitness was -0.064 ± 0.099. To GLMCLEHEDEKVNMYCVTDDPLICALCKLVGRHRDHQVAALSE [Q21P] belongs -0.524 ± 0.14. The figure for GLMCLEHEDEKVNMYCVTDPQLICALCKLVGRHRDHQVAALSE [D20P] is -0.573 ± 0.1. For the variant GLMCLEHEDEKVNMYCVTDGQLICALCKLVGRHRDHQVAALSE [D20G], the abundance fitness is -0.075 ± 0.05.

Consider GLMCLEHEDEKVNMYCVRDDQLICALCKLVGRHRDHQVAALSE [T18R], for which the abundance fitness was -0.101 ± 0.057. Turning to GLMCLEHEDEKVNMYCVQDDQLICALCKLVGRHRDHQVAALSE [T18Q], the abundance fitness was -0.073 ± 0.1. To GLMCLEHEDEKVNMYCVDDDQLICALCKLVGRHRDHQVAALSE [T18D] belongs -0.152 ± 0.079; to GLMCLEHEDEKVNMYCVTWDQLICALCKLVGRHRDHQVAALSE [D19W], -0.779 ± 0.1; to GLMCLEHEDEKVNMYCVTHDQLICALCKLVGRHRDHQVAALSE [D19H], -0.496 ± 0.16. The figure for GLMCLEHEDEKVNMYCVTPDQLICALCKLVGRHRDHQVAALSE [D19P] is -0.723 ± 0.16; for GLMCLEHEDEKVNMYCVTDDQLICALCKLFGRHRDHQVAALSE [V30F] it is -0.381 ± 0.27; for GLMCLEHEDEKVNMYCVTDDQLICALCKLDGRHRDHQVAALSE [V30D] it is 0.145 ± 0.058.

In the case of GLMCLEHEDEKVNMYCVTDDQLICALCKLVGIHRDHQVAALSE [R32I], the abundance fitness is -0.18 ± 0.21. As for GLMCLEHEDEKVNMYCVTDDQLICALCKLVGKHRDHQVAALSE [R32K], the abundance fitness is 0.116 ± 0.059. Regarding GLMCLEHEDEKVNMYCVTDDQLICALCKLVGSHRDHQVAALSE [R32S], the abundance fitness amounted to 0.073 ± 0.061.

On to GLMCLEHEDEKVNMYCVTDDQLMCALCKLVGRHRDHQVAALSE [I23M], for which the abundance fitness was found to be 0.011 ± 0.089.

As to GLMCLEHEDEKVNMYCVTDDQLWCALCKLVGRHRDHQVAALSE [I23W], the abundance fitness was -0.423 ± 0.39. To GLMCLEHEDEKVNMYCVTDDQLDCALCKLVGRHRDHQVAALSE [I23D] belongs -0.124 ± 0.16. The figure for GLMCLEHEDEKVNMYCVTDDQLGCALCKLVGRHRDHQVAALSE [I23G] is -0.19 ± 0.085; for GLMCLEHEDEHVNMYCVTDDQLICALCKLVGRHRDHQVAALSE [K11H] it is 0.19 ± 0.41. The figure for GLMCLEHEDEPVNMYCVTDDQLICALCKLVGRHRDHQVAALSE [K11P] is -0.259 ± 0.18; for GLMCLEHEDEMVNMYCVTDDQLICALCKLVGRHRDHQVAALSE [K11M] it is 0.096 ± 0.096; for GLMCLEHEDEKVNMYCVTDDQLICMLCKLVGRHRDHQVAALSE [A25M] it is -0.23 ± 0.1. Turning to GLMCLEHEDEKVNMYCVTDDQLICWLCKLVGRHRDHQVAALSE [A25W], the abundance fitness was -0.181 ± 0.1. To GLMCLEHEDEKVNMYCVTDDQLICCLCKLVGRHRDHQVAALSE [A25C] belongs -0.097 ± 0.082; to GLMCLEHEDEKVNMYCVTDDQLICKLCKLVGRHRDHQVAALSE [A25K], -0.02 ± 0.062; to GLMCLEHEDEKVNMYCVTDDQLICRLCKLVGRHRDHQVAALSE [A25R], 0.099 ± 0.052. The figure for GLMCLEHEDEKVNMYCVTDDQLICALWKLVGRHRDHQVAALSE [C27W] is -1.01 ± 0.11.
